From patent US20260224701A1
Numbering of substitutions follows the chain as printed. Values belong to the binder of their own block, whether it stands above or below them.

Columns and labels:
[1] = target: human 4Ig-B7-H3 extracellular domain (human) (UniProt Q5ZPR3); assay: biolayer interferometry (Octet), antibody captured on the probe, extracellular domain in solution
[2] = target: Human rhB7-H3 (human) (UniProt Q5ZPR3); assay: SPR (Biacore 8K/T200), antibody captured via Fc, B7-H3 antigen as analyte at 1.17-75 nM
[3] = target: Human rhB7-H3 (human) (UniProt Q5ZPR3); assay: SPR (Biacore 8K/T200), purified IgG as ligand, rhB7-H3 as analyte
[4] = target: Porcine 4Ig-B7-H3 extracellular domain (porcine); assay: biolayer interferometry (Octet), antibody captured on the probe, extracellular domain in solution
Porcine 4Ig-B7-H3 extracellular domain (porcine), sequence (chain, as listed by the source): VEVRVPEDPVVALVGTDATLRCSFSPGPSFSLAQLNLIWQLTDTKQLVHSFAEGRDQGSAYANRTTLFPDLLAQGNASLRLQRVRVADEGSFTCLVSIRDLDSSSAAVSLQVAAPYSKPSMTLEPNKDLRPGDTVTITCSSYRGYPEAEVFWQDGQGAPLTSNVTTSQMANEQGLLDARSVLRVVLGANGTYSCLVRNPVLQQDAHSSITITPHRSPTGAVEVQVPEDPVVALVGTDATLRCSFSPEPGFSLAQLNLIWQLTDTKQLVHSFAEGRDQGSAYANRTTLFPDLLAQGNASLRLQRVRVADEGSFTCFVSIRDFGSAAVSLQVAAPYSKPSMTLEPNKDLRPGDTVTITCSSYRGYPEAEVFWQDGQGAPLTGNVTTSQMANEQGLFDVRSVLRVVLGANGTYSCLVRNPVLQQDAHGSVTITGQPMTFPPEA

[5] = target: human 2Ig-B7-H3 extracellular domain (human) (UniProt Q5ZPR3); assay: as above
[6] = target: Human rhB7-H3 (human) (UniProt Q5ZPR3); assay: SPR (Biacore 8K/T200), Fab-SASA captured on immobilised albumin, B7-H3 as analyte, 1:1 model
[7] = target: human 4Ig-B7-H3 extracellular domain (human) (UniProt Q5ZPR3); assay: biolayer interferometry (Octet); ratio of the KD values against 2Ig-B7-H3 as reference

human 4Ig-B7-H3 extracellular domain (human), sequence (Q5ZPR3 29-466): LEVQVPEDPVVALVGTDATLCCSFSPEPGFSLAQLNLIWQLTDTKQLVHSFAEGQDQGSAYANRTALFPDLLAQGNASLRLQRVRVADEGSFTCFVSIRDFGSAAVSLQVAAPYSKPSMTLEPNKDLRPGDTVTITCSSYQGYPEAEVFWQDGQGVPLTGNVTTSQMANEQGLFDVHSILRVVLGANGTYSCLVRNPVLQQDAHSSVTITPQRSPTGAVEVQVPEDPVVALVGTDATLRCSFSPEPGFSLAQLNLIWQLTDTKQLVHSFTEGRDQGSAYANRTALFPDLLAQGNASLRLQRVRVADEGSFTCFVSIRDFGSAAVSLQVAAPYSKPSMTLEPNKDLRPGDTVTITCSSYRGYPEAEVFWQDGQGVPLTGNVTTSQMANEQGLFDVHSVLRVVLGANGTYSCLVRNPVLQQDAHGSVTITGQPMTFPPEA

Kd [1]: 0.16 nM
Kd [2]: 0.199 nM
koff [2]: 0.000121 s⁻¹
kon [2]: 609000 M⁻¹ s⁻¹
Kd [3]: 0.148 nM
koff [3]: 7.16e-05 s⁻¹
kon [3]: 482000 M⁻¹ s⁻¹
B1: MIL33B chimeric antibody (full-length IgG) (antibody, V domains shown)
VH: EVQLQQSGPELVKPGASVKMSCKASGYTFTSYVMHWVRQSPGQGLEGIGYINSYSDGTKYNEKFKGKATLTSDKSSSTAYMELSGLTSEDSAVYYCARWGGLGNGAMDYWGQGTSVTVSS
VL: QIVLTQSPAIMSASPGEKVTMTCSVSSSVNYMHWYQQKSGTSPKRWIYDTSKLASGVPARFSASGSGTSYSLTISSMEAEDAATYYCQQWTSNPLTFGAGTKLELKR

Kd [4]: 0.102 nM
Kd [1]: 0.0807 nM
Kd [5]: 0.781 nM
B2: MIL33B-mIgG2a (murine MIL33B antibody) (antibody, from a related filing, V domains shown)
VH: B1 VH
VL: QIVLTQSPAIMSASPGEKVTMTCSVSSSVNYMHWYQQKSGTSPKRWIYDTSKLASGVPARFSASGSGTSYSLTISSMEAEDAATYYCQQWTSNPLTFGAGTKLELK

Kd [1]: 0.121 nM
selectivity ratio, 4Ig-B7-H3 over 2Ig-B7-H3 [7]: 360
Kd [3]: 0.243 nM
koff [3]: 0.000117 s⁻¹
kon [3]: 481000 M⁻¹ s⁻¹
B4: MIL33B-H3-hIgG1 (antibody, V domains shown)
VH: QVQLVQSGAEVKKPGASVKVSCKASGYTFTSYVMHWVRQAPGQRLEWMGYINSYSDGTKYNEKFKGRVTITRDTSASTAYMELSSLRSEDTAVYYCARWGGLGNGAMDYWGQGTLVTVSS
VL: EIVLTQSPATLSLSPGERATLSCSVSSSVNYMHWYQQKPGQAPRRLIYDTSKLASGIPARFSGSGSGTDYTLTISSLEPEDFAVYYCQQWTSNPLTFGQGTKLEIK

Kd [1]: 0.12 nM
Kd [3]: 0.226 nM
koff [3]: 0.000105 s⁻¹
kon [3]: 464000 M⁻¹ s⁻¹
B6: MIL33B-H2-hIgG1 (antibody, V domains shown)
VH: B4 VH with V68A
VL: B4 VL

Kd [1]: 0.153 nM
Kd [3]: 0.233 nM
koff [3]: 0.000139 s⁻¹
kon [3]: 597000 M⁻¹ s⁻¹
B9: MIL33B-H1-hIgG1 (antibody, V domains shown)
VH: B4 VH with R72S
VL: B4 VL

Continued, binder first:

B3: Chimeric Fab-SASA (Fab, V domains shown)
VH: B1 VH
VL: B1 VL
Kd [6]: 0.499 nM
koff [6]: 0.000131 s⁻¹
kon [6]: 262000 M⁻¹ s⁻¹

B5: AHF15945 Fab-SASA (Fab, V domains shown)
VH: B4 VH with R72S
VL: B4 VL
Kd [6]: 0.888 nM
koff [6]: 0.000244 s⁻¹
kon [6]: 274000 M⁻¹ s⁻¹

B7: AHF15948 Fab-SASA (Fab, V domains shown)
VH: B4 VH
VL: B4 VL
Kd [6]: 0.366 nM
koff [6]: 9.35e-05 s⁻¹
kon [6]: 255000 M⁻¹ s⁻¹

B8: AHF15938 Fab-SASA (Fab, V domains shown)
VH: B4 VH with V68A
VL: B4 VL
Kd [6]: 0.00804 nM
koff [6]: 1.97e-06 s⁻¹
kon [6]: 245000 M⁻¹ s⁻¹

B10: Grafted Fab-SASA (Fab, V domains shown)
VH: B4 VH
VL: EIVLTQSPATLSLSPGERATLSCSVSSSVNYMHWYQQKPGQAPRLLIYDTSKLASGIPARFSGSGSGTDFTLTISSLEPEDFAVYYCQQWTSNPLTFGQGTKLEIKR
Kd [6]: 28.5 nM
koff [6]: 0.0117 s⁻¹
kon [6]: 413000 M⁻¹ s⁻¹
